Assay results: patent US8821943B2, “Methods and compositions for targeted delivery of therapeutic agents” (Board of Regents of the University of Nebraska, priority 2006, dated 2014)

Test system: ARPE-19 cells
Experiment: Nanoparticle uptake by human retinal pigment epithelial cells
Assay type: cell-based
Conditions: 1 ml of 100 μg/ml suspension in serum free medium
Method: A study was performed to examine the effect of targeting moieties on biodegradable and non-biodegradable carrier particles and their uptake in ocular cells. The biodegradable and non-biodegradable targeted carrier particles of the preceding Example were used. Uptake of nanoparticles by human retinal pigment epithelial cells (ARPE-19 cell line) was quantified by measuring fluorescence in cell lysate obtained after incubation of targeted or untargeted (unconjugated) nanoparticles with ARPE-19 cell monolayers.
ARPE-19 cells were obtained from American Type Culture Collection (ATCC, Manassas, Va.). The cells were maintained in culture according to supplier's recommendation. All studies were conducted using confluent cells of passages 20-30. Dulbecco's modified Eagle's medium (DMEM-F/12), fetal bovine serum, penicillin-streptomycin and L-glutamine were obtained from Gibco-BRL (Invitrogen Inc., Carlsbad, Calif.). Cell culture flasks (T-75 cm^2) and plates were purchased from Corning Inc., (Corning, N.Y.). To investigate the uptake of particles, ARPE-19 cells between 20-30 passages were cultured in 24-well plates until confluency. […] Fluorescence intensity of the cell lysates was determined at an excitation and emission wavelength of 505 and 515 nm, respectively, for FluoSpheres®. […]

Substance: Transferrin-AS: transferrin-aldehyde sulphate-conjugated polystyrene nanoparticles
- percentage uptake at 3 h by ARPE-19 cells: 12.2±0.26%
